Tested on: Human dermal lymphatic endothelial cells (HDLEC)
Assay: Bulk RNA-sequencing, differential gene expression and GO analysis
Format: cell-based
Procedure: Human dermal lymphatic endothelial cells (HDLEC) (single donor, juvenile foreskin, Promocell, C-12216, >95% of the cells are CD31 positive and podoplanin positive) were cultured in Endothelial Cell Media MV2 (EGM-MV2, Promocell, C-22121). NIH3T3 were cultured in Dulbecco's modified Eagle's medium (DMEM, Sigma, D6429) supplemented with 10% fetal bovine serum (FBS, Gibco, 10270-06) and 1% penicillin-streptomycin. Endothelial cells were used at passage 3-6 and human fibroblasts were used at passage 4-7. Cells were cultured at 37° C. in a 5% CO2 incubator. Culture medium was changed 3 times a week, and the cells were passaged ⅓. For collecting conditioned media, NIH3T3 were grown in 10 cm dishes, after reaching confluence, medium was removed and the cells were washed once with PBS. NIH3T3 were cultured overnight in 5 mL reduced serum medium optiMEM (Gibco), the medium was then collected and used for experiments. HDLEC were treated with 50% conditioned media/50% MV2-05% FBS. Total RNA from HDLEC transduced or not with Apelin Lentivector were prepared using the RNeasy mini kit (Qiagen 74106). Total RNA were then subjected to ribosomal-RNA depleted RNA sequencing (RNA-Seq) protocol performed by Genewiz company using Illumina HiSeq, PE 2×150 configuration. Sequence reads were trimmed to remove possible adapter sequences and nucleotides with poor quality using Trimmomatic v.0.36. The trimmed reads were mapped to the Homo sapiens GRCh38 reference genome available on ENSEMBL using the STAR aligner v.2.5.2b. The STAR aligner is a splice aligner that detects splice junctions and incorporates them to help align the entire read sequences. BAM files were generated as a result of this step. Unique gene hit counts were calculated by using feature Counts from the Subread package v.1.5.2. The hit counts were summarized and reported using the gene_id feature in annotation file. Only unique reads that fell within exon regions were counted. Distribution of read counts in libraries were examined before and after normalization. The original read counts were normalized to adjust for various factors such as variations of sequencing yield between samples. These normalized read counts were used to accurately determine differentially expressed genes. Data quality assessments were performed to detect any samples that are not representative of their group, and thus, may affect the quality of the analysis. The overall similarity among samples were assessed by the Euclidean distance between samples. This method was used to examine which samples are similar/different to each other and if they fit to the expectation from the experiment design. The shorter the distance, the more closely related the samples are. Samples were then clustered by using the distance. A principal component analysis was also performed to reveal the similarity between samples based on the distance matrix. After extraction of gene hit counts, the gene hit counts table was used for downstream differential expression analysis. Using DESeq2, a comparison of gene expression between Apelin transduced LEC against non-transduced LEC was performed. The Wald test was used to generate p-values and log2 fold changes. […] The global transcriptional change across the two groups compared was visualized by a volcano plot. Each data point in the volcano plot represents a gene. The log2 fold change of each gene is represented on the x-axis and the log10 of its adjusted p-value is on the y-axis.

B1: APELIN: bioactive peptide apelin, endogenous ligand of APJ; applied to HDLEC as conditioned media from LV-Apelin transduced NIH3T3 or by transduction (protein, listed as Homo sapiens)
chain: MNLRLCVQALLLLWLSLTAVCGGSLMPLPDGNGLEDGNVRHLVQPRGSRNGPGPWQGGRRKFRRQRPRLSHKGPMPF
GO analysis of down regulated genes: no biological process was significantly affected | GO analysis for biological process, upregulated genes (FDR<0.05): enriched (FDR<0.05) for terms related to extracellular matrix (ECM) remodelling and signalisation | number of genes up regulated by both apelin and VEGF-C (HDLEC, conditioned media): 43 genes | number of genes up regulated by both apelin and apelin+VEGF-C (HDLEC, conditioned media): 31 genes | number of genes up regulated by both apelin, VEGF-C and apelin+VEGF-C (HDLEC, conditioned media): 19 genes | expression of E2F8 (LEC): stimulated | expression of genes related to VEGFC maturation (ADAMTS2, CCBE1) (compared to WT): improved | number of genes deregulated (conditioned media vs control NIH3T3 media, p.adj<0.05 and Log2 fold change<-0.5 or >0.5): 217 genes | number of genes down regulated (p.adj<0.05, Log2 fold change <-0.5): 123 genes | number of genes up regulated (p.adj<0.05, Log2 fold change >0.5): 94 genes

Reference: patent US20260041732A1, “USE OF APELIN FOR THE TREATMENT OF LYMPHEDEMA” (INSTITUT NATIONAL DE LA SANTE ET DE LA RECHERCHE MEDICALE, priority 2022, published 2026)
